In patent publication US20240409645A1:

T1: mouse IL-2Rα (mouse) (UniProt P01590)
T1 sequence (looked up): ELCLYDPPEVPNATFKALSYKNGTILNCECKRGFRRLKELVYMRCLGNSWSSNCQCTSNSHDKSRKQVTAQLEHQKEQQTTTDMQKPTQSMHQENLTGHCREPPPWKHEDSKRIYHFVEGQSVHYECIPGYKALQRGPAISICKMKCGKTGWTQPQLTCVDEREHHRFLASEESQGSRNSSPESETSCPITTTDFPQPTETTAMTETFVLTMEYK

T2: human interleukin-2 receptor β-chain (IL-2Rβ; CD122), recombinant protein (human) (UniProt P14784)
T2 sequence: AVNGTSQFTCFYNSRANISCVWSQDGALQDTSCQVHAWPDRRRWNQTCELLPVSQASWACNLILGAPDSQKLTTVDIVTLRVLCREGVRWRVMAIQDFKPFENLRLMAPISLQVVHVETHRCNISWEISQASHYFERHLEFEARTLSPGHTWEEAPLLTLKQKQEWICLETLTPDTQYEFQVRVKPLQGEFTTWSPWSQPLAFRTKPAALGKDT

T3: mouse IL-2Rβ (mouse) (UniProt P16297)
T3 sequence (looked up): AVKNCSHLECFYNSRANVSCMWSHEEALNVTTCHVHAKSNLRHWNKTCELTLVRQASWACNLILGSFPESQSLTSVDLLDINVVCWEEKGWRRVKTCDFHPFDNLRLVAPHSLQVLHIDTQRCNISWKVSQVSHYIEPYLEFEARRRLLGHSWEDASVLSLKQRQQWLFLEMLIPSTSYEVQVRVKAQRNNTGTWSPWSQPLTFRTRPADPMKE


Experiments:
[1] = biological target: T1, mouse IL-2Rα (mouse); assay: ELISA, P.E. on coated antigen
[2] = biological target: cynomolgus monkey IL-2Rα/CD25 subunit (cynomolgus monkey) (UniProt H6WS54); assay: ELISA, monovalent VHH-hFc
cynomolgus monkey IL-2Rα/CD25 subunit (cynomolgus monkey), sequence (H6WS54 entry or part of it): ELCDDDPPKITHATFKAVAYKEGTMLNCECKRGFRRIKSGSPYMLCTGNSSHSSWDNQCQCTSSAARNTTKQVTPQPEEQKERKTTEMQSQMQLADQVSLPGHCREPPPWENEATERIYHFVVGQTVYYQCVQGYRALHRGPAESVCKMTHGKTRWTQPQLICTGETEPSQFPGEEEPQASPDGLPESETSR

[3] = biological target: human interleukin-2 receptor α-chain (IL-2Rα; CD25), recombinant protein (human) (UniProt P01589); assay: ELISA, monovalent VHH-hFc
human interleukin-2 receptor α-chain (IL-2Rα; CD25), recombinant protein (human), sequence (P01589 22-240 limits assumed): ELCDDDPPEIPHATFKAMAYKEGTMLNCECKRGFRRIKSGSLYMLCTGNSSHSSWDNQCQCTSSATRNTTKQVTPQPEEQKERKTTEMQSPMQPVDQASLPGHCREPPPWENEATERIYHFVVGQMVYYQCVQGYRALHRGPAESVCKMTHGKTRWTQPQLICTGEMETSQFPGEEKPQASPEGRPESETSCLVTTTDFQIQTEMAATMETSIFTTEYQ

[4] = biological target: cynomolgus monkey IL-2Rα/CD25 subunit (cynomolgus monkey) (UniProt H6WS54); assay: ELISA, monovalent; EC50 cyno vs human subunit
[5] = biological target: T2, human interleukin-2 receptor β-chain (IL-2Rβ; CD122), recombinant protein (human); assay: ELISA, monovalent VHH-hFc
[6] = biological target: T3, mouse IL-2Rβ (mouse); assay: P.E. binding ELISA

| EC50 [2] | EC50 [3] | Fold change [4] | further results | Binder |
| --- | --- | --- | --- | --- |
| – | – | – | OD (PE binding ELISA) [1]: 0.045 OD450 nm | FJ1427_P035MP01D11 (VHH) VHH: QLQLVESGGGLVQAGDSLRLSCAASGRSFRNYIMAWYRQAPGKEREFLAAISWLDGTLYADSVEDRFTISRDNPKNTVHLQMDSLKPEDTAVYYCAADRGPVRPVLAPDVDYWGQGTQVTVSS |
| – | – | – | OD (PE binding ELISA) [1]: 0.047 OD450 nm | FJ1427_P035MP01F11 (VHH) VHH: QVQLQESGGGLVQAGDSLRLSCAASGRSFRNYILAWYRQAPGKEREFLAAISWLDGTLYADSVEDRFTISRDNPKNTVHLQMDSLKPEDTAVYYCAADRGPVRPVLAPDVDYWGQGTQVTVSS |
| – | – | – | OD (PE binding ELISA) [1]: 0.046 OD450 nm | FJ1427_P035MP01B12 (VHH) VHH: QVQLQESGGGLVQAGDSLRLSCAASGRSFRNYILAWYRQAPGKEREFLAAISWLDGTFYANSVEGRFTISRDNPKNTVHLQMDGLKPEDTAVYYCAADRGPVRPVLAPDVDYWGQGTQVTVAS |
| 1.25 nM | 0.378 nM | 3.3 fold | – | 11-MP05H04 VHH-hFc, monospecific monovalent (Fc fusion, part only; not given: Both Fc arms and linker, not shown: another chain or arm of the molecule; a dimerising Fc or GST; small tags and cut ends) VHH: QLQLVESGGGLVQAGGSLRLSCAASGLTFEGYAIGWFRQAPGKEREGVSYITGSDGTTYYINSVKGRFTISSDNAKSTVYLQMNTLKPEDTAVYYCAVDRLGSQGRYASAWWRSGDMDLWGKGTQVTVSS |
| 0.074 nM | 0.078 nM | 1 fold | – | 9-MP05G01 VHH-hFc, monospecific monovalent (Fc fusion, part only; not given: Both Fc arms and linker, not shown: another chain or arm of the molecule; a dimerising Fc or GST; small tags and cut ends) VHH: EVQLVESGGGLVQAGGSLRLSCAASGGSIYTYNMGWFRQAPGKEREFVAGTLWSGGDSVYADFAKGRFTLSRENAKNTLYLQMNSLKPEDTATYYCAIDPLSLTSDWRVDELSSWGKGTLVTVSS |
| – | – | – | OD (PE binding ELISA) [1]: 0.046 OD450 nm | FJ1427_P035MP01A11 (VHH) VHH: QVQLVESGGGLVQPGGSLRLSCAASGRTFETHNMGWFRRAPGKEREFVAVISWNVDSTEYTDSVKGRFTISRDNDKNMVYLQMNSLKPEDTGVYYCAADNIPLSSDMSPTAAEYGYWGQGTQVTVSS |
| – | – | – | EC50 [5]: 0.197 nM | 20-MP03F10 VHH-hFc, monospecific monovalent (Fc fusion, part only; not given: Both Fc arms and linker, not shown: another chain or arm of the molecule; a dimerising Fc or GST; large carriers; small tags and cut ends) VHH: EVQLVESGGGLVQAGGSLRLSCAASGRDFSSYAMGWFRQAPGKEREFVVAITWTKRSTDFPDSVKGRFTISRDNAKNTVYLDMNSLKPEDTAVYYCASARGLPVTPLGDIIYWGEGTLVTVSS |
| – | – | – | OD450 nm [6]: 0.049 OD450 nm | 19-MP03F08 VHH (periplasmic extract) (VHH) VHH: EVQLVESGGGLVQTGGSLRLSCAASGGTFSRDAMAWFRQVPGKEREFVALISWSGATTNYADSVKGRFAISRDNGKNTVYLQMNRLKPADTAIYYCAADRRPMGSRSYFEPTEYDDWGQGTQVTVSS |
| 0.133 nM | 0.173 nM | 0.8 fold | – | 7-MP01G08 VHH-hFc, monospecific monovalent (Fc fusion, part only; not given: Both Fc arms and linker, not shown: another chain or arm of the molecule; a dimerising Fc or GST; small tags and cut ends) VHH: EVQLVESGGGLVQAGGSLRLSCAASGRAFSMYNMGWFRQAPGKEREFVAATGWSGANTPYADSVKGRFTISRDNTQNTVYLQMNSLKPEDTATYYCAADSIRLRSDVTRIPLEYDYWGQGTQVTVSS |
| 1.1 nM | 0.13 nM | 8.5 fold | – | 12-MP05B12 VHH-hFc, monospecific monovalent (Fc fusion, part only; not given: Both Fc arms and linker, not shown: another chain or arm of the molecule; a dimerising Fc or GST; small tags and cut ends) VHH: QVQLVESGGGLVQAGGSLRLSCAASGFTFDGYAIGWFRQAPGKEREGVSYITGSDGSTYYADSVKGRFTISSNNAKNTVYLHMNSLKPDDAAVYYCAIDRLGSRGAYVPIWWRSSDMDLWGKGTLVTVSS |
| – | – | – | EC50 [5]: 0.373 nM | 18-MP03C03 VHH-hFc, monospecific monovalent (Fc fusion, part only; not given: Both Fc arms and linker, not shown: another chain or arm of the molecule; a dimerising Fc or GST; large carriers; small tags and cut ends) VHH: QVQLVESGGGLVQPGGSLRLSCAISGGTLDSYGIGWVRQAPGKQREGVSCMSRSDDRTYYADSVKGRFTISKDSAKNTVYLQMTSLKPEDTAVYYCAAVDAYGCSLVQPTTYDFWGLGTQVTVSS |
| 0.096 nM | 0.074 nM | 1.3 fold | – | 2-MP01A02 VHH-hFc, monospecific monovalent (Fc fusion, part only; not given: Both Fc arms and linker, not shown: another chain or arm of the molecule; a dimerising Fc or GST; small tags and cut ends) VHH: QVQLVESGGGLVQPGGSLRLSCATSGFTFRNNFMSWVRQAPGKGLEWVSTISYGGESTTYAESVKGRFTISRDNAKNTLYLQMNNLKPEDTAVYYCAKATSYDSIRSGSRGQGTQVTVSS |
| 0.069 nM | 0.065 nM | 1.1 fold | – | 8-MP01C12 VHH-hFc, monospecific monovalent (Fc fusion, part only; not given: Both Fc arms and linker, not shown: another chain or arm of the molecule; a dimerising Fc or GST; small tags and cut ends) VHH: QVQLVESGGGLVQPGGSLRLSCATSGFTFSNNFMSWVRQAPGKGLEFVSTISYGGESTTYAEAVKGRFTISRDNAKNTLYLQMNNLKPEDTAIYYCAKATSYTSIRGAPRGQGTQVTVSS |
| – | – | – | OD (PE binding ELISA) [1]: 0.046 OD450 nm | FJ1427_P035MP01E11 (VHH) VHH: QVQLVESGGGLVQPGGSLRLSCAASGFTFSNNFMSWVRQAPGKGLEWVSTISYFGDSTRYAESVKGRFTISRDNEKNTLYLQMNNLKPEDTAVYYCAKATSYDSIRSGSRGRGTQVTVSS |
| – | – | – | OD (PE binding ELISA) [1]: 0.057 OD450 nm | FJ1427_P035MP01H10 (VHH) VHH: QVQLVESGGGLVETGGSLRLSCAASGITFNDHTMAWFRQAPGKEREFVAARDWSDIITRYASSVKGRFTISRDNAGNTGFLQMNSLRPEDTAVYYCAAREGGVVAGVRSGAPYDYWGQGTQVTVSS |
| – | – | – | OD450 nm [6]: 0.047 OD450 nm | 17-MP02C09 VHH (periplasmic extract) (VHH) VHH: QVQLQESGGGLVQAGGSLRLSCVASGSVSSINGMAWYRQGADNQRVLVAAISRVGNTAYGDSVKGRFTISRQNARNTVYLQMNSLKPEDTAVYYCNADSWGGDDYWGQGTQVTVSS |
| – | – | – | EC50 [5]: 0.64 nM | 15-MP02E06 VHH-hFc, monospecific monovalent (Fc fusion, part only; not given: Both Fc arms and linker, not shown: another chain or arm of the molecule; a dimerising Fc or GST; small tags and cut ends) VHH: QVQLVESGGGSVQPGGSLRLSCAASGFTFSNYAMSWVRQAPGKGLEWVASITGFGRGTDYADSVKGRFTISRDNAEDTLYLQMNSLKPEDTAVYYCAKYSSSTYYPPTPARGRDYRGQGTQVTVSS |
| 0.498 nM | 0.478 nM | 1 fold | – | 1-MP01H01 VHH-hFc, monospecific monovalent (Fc fusion, part only; not given: Both Fc arms and linker, not shown: another chain or arm of the molecule; a dimerising Fc or GST; small tags and cut ends) VHH: EVQLVESGGGLVQAGGSLRLSCAASGRTFRTHNMGWFRRAPGKEREFVAAISWNVDNTLYADSVKGRFTISRDNGRNMVYLQMNSLKPEDTAVYYCAADNIPLSSDVAATATEYDYWGQGTQVTVSS |
| 0.074 nM | 0.077 nM | 1 fold | – | 4-MP01F04 VHH-hFc, monospecific monovalent (Fc fusion, part only; not given: Fc arms with stated mutations, not shown: another chain or arm of the molecule; a dimerising Fc or GST; small tags and cut ends) VHH: QVQLVESGGGLVQAGGSLRLSCAASGGTFRTRNMGWFRRAPGKEREFVAAVSWNVDNKLYADSVKGRFTISRDNGRNMVYLQMNSLKPEDTAVYYCAADNIPLSSDMRPTATEYDYWGQGTQVTVSS |
| – | – | – | OD (PE binding ELISA) [1]: 0.047 OD450 nm | FJ1427_P035MP01H11 (VHH) VHH: QVQLVESGGGLVQAGGSLRLSCAASGRTFRTHNMGWFRRAPGKEREFVAAISWNVDNTLYADSVKGRFTISRDNDRNMVYLQMNSLKPEDTAVYFCAADNIPLSSDVRATATEFGYWGQGTRVTVSS |
| 0.098 nM | 0.105 nM | 0.9 fold | – | 10-MP05F03 VHH-hFc, monospecific monovalent (Fc fusion, part only; not given: Both Fc arms and linker, not shown: another chain or arm of the molecule; a dimerising Fc or GST; small tags and cut ends) VHH: QVQLVESGGGLVQAGGSLRLSCAASGIPFDNYAMGWFRQAPGKEREFVAARDLEGIITRYGDSVKGRFTISRGNAKNTVFLQMNSLKPEDTAVYYCAARDGGVVAGSRSSAQYNYWGQGTQVTVSS |
| 1.15 nM | 0.086 nM | 13.4 fold | – | 3-MP01E03 VHH-hFc, monospecific monovalent (Fc fusion, part only; not given: Both Fc arms and linker, not shown: another chain or arm of the molecule; a dimerising Fc or GST; small tags and cut ends) VHH: QVQLVESGGGLVQAGGSLRLSCTASGRTLSSYSMAWFRQAADKGREFVTAISSSGVVTHVLDSVKGRFTISRDNAKNTVYLQMNSLQPEDTALYFCAGTASSYSTYEANYNYWGQGTLVTVSS |
| 0.317 nM | 0.27 nM | 1.2 fold | – | 6-MP01G05 VHH-hFc, monospecific monovalent (Fc fusion, part only; not given: Both Fc arms and linker, not shown: another chain or arm of the molecule; a dimerising Fc or GST; small tags and cut ends) VHH: QVQLQESGGGLVQAGGSLRLSCAASGRTFSSYAMGWFRQAPGKEREFVAVISWNVDNTEYTDSVKGRFTISRDNDKNMVYLQMNSLKPEDTAVYYCAADSIPLSSDMSPTATEYGYWGQGTQVTVSS |
| 0.136 nM | 0.088 nM | 1.5 fold | – | 5-MP01F05 VHH-hFc, monospecific monovalent (Fc fusion, part only; not given: Both Fc arms and linker, not shown: another chain or arm of the molecule; a dimerising Fc or GST; small tags and cut ends) VHH: EVQLVESGGGLVQAGGSLRLSCAASIRAFTTWSMAWFRQAPGKEREYVARINVSGSVTYYADFVKGRFTISRDNAKKTMYLEMNNLKPEDTALYYCAADRTGVGTNDYNYWGQGTQVTVSS |
